The numbers were not newly measured in publication PMC11612555, “Impact of camel milk lactoferrin peptides against breast cancer cells: in silico and in vitro study” (Frontiers in Pharmacology, 2024), which cites them from elsewhere.

In one data set the test system is MCF-10-2A. On the set-up: method as in Zhang et al., 2014. Conditions: normal breast cell line MCF-10-2A; ref Zhang et al., 2014.
The next data set has as its system T-47D. On the set-up: method as in Zhang et al., 2014. Conditions: ref Zhang et al., 2014.
The test system of the next data set is MDA-MB-231. Also on record: method as in Zhang et al., 2014. The following applies: ref Zhang et al., 2014.
The subject of the next data set is Hs578T. On the set-up: method as in Zhang et al., 2014. Conditions: ref Zhang et al., 2014.
In the next data set the test system is MCF-7. On the set-up: method as in Zhang et al., 2014. Conditions: ref Zhang et al., 2014.
Another data set has as its system MDAmb231 cells. Also on record: method as in Rascón-Cruz et al., 2021b. The following applies: against MDAmb231; ref Rascón-Cruz et al., 2021b.
A further data set concerns HeLa cells. Also on record: method as in Rascón-Cruz et al., 2021b. The following applies: against HeLa; ref Rascón-Cruz et al., 2021b.

B1: bovine lactoferrin (protein, UniProt P24627 20-708, looked up)
Lactotransferrin: APRKNVRWCTISQPEWFKCRRWQWRMKKLGAPSITCVRRAFALECIRAIAEKKADAVTLDGGMVFEAGRDPYKLRPVAAEIYGTKESPQTHYYAVAVVKKGSNFQLDQLQGRKSCHTGLGRSAGWIIPMGILRPYLSWTESLEPLQGAVAKFFSASCVPCIDRQAYPNLCQLCKGEGENQCACSSREPYFGYSGAFKCLQDGAGDVAFVKETTVFENLPEKADRDQYELLCLNNSRAPVDAFKECHLAQVPSHAVVARSVDGKEDLIWKLLSKAQEKFGKNKSRSFQLFGSPPGQRDLLFKDSALGFLRIPSKVDSALYLGSRYLTTLKNLRETAEEVKARYTRVVWCAVGPEEQKKCQQWSQQSGQNVTCATASTTDDCIVLVLKGEADALNLDGGYIYTAGKCGLVPVLAENRKSSKHSSLDCVLRPTEGYLAVAVVKKANEGLTWNSLKDKKSCHTAVDRTAGWNIPMGLIVNQTGSCAFDEFFSQSCAPGADPKSRLCALCAGDDQGLDKCVPNSKEKYYGYTGAFRCLAEDVGDVAFVKNDTVWENTNGESTADWAKNLNREDFRLLCLDGTRKPVTEAQSCHLAVAPNHAVVSRSDRAAHVKQVLLHQQALFGKNGKNCPDKFCLFKSETKNLLFNDNTECLAKLGGRPTYEEYLGTEYVTAIANLKKCSTSPLLEACAFLTR
notes: lactoferrin from bovine milk
Turning to B1, the proliferation entry in the data set on MCF-10-2A is “not”; in the data set with T-47D, “inhibited”; with MDA-MB-231, “inhibited”; with Hs578T, “inhibited”; in the data set with MCF-7 it was “inhibited”.

B2: lactoferrin (protein, UniProt P02788 20-710, looked up)
Lactotransferrin: GRRRSVQWCAVSQPEATKCFQWQRNMRKVRGPPVSCIKRDSPIQCIQAIAENRADAVTLDGGFIYEAGLAPYKLRPVAAEVYGTERQPRTHYYAVAVVKKGGSFQLNELQGLKSCHTGLRRTAGWNVPIGTLRPFLNWTGPPEPIEAAVARFFSASCVPGADKGQFPNLCRLCAGTGENKCAFSSQEPYFSYSGAFKCLRDGAGDVAFIRESTVFEDLSDEAERDEYELLCPDNTRKPVDKFKDCHLARVPSHAVVARSVNGKEDAIWNLLRQAQEKFGKDKSPKFQLFGSPSGQKDLLFKDSAIGFSRVPPRIDSGLYLGSGYFTAIQNLRKSEEEVAARRARVVWCAVGEQELRKCNQWSGLSEGSVTCSSASTTEDCIALVLKGEADAMSLDGGYVYTAGKCGLVPVLAENYKSQQSSDPDPNCVDRPVEGYLAVAVVRRSDTSLTWNSVKGKKSCHTAVDRTAGWNIPMGLLFNQTGSCKFDEYFSQSCAPGSDPRSNLCALCIGDEQGENKCVPNSNERYYGYTGAFRCLAENAGDVAFVKDVTVLQNTDGNNNEAWAKDLKLADFALLCLDGKRKPVTEARSCHLAMAPNHAVVSRMDKVERLKQVLLHQQAKFGRNGSDCPDKFCLFQSETKNLLFNDNTECLARLHGKTTYEKYLGPQYVAGITNLKKCSTSPLLEACEFLRK
In the case of B2, the selective index with MDAmb231 cells was 11.68; in the data set on HeLa cells, 9.59.
